These results are taken from article PMC5737521 (Nucleic Acids Research, 2017).

Data set [1] deals with the molecule itself. Description: crystal structure.
Data set [2] addresses T1, H. sapiens JunD bZIP domain (residues Q266-V332) (human, UniProt P17535 266-332).
T1 sequence: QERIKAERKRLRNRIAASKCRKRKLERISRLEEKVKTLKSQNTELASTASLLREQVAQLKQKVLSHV
Description: crystal structure.

Data set [3] concerns the molecule itself. The experiment in a line: fluorescence polarisation.
Data set [4] has as its target T2, FosB bZIP domain;JunD bZIP domain (Homo sapiens (cloned from identical Mus …, UniProt P53539;P17535 153-219;266-332, |)).
T2 sequence 1: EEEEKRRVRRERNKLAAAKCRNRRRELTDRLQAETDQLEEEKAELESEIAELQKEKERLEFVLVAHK
T2 sequence 2: T1 sequence
Description: fluorescence polarization.

B1: Homo sapiens FosB bZIP domain (residues E153-K219) (domain or fragment)
chain: T2 sequence 1
On to B1, for which the binding result in data set [1] and in data set [2] was “binds” each time.

B2: oxidized form of FosB/JunD bZIP heterodimer (FJ^oxi) (complex)
chain 1: T2 sequence 1
chain 2: T1 sequence
As for B2, the binding result in data set [1] is listed as “binds”.

B3: reduced FosB/JunD bZIP heterodimer (FJ^red) (complex)
chain 1: T2 sequence 1
chain 2: T1 sequence
Take B3: in data set [3], the binding result is given as “binds”.

B4: TAMRA AP-1 19-mer (cyclin-dependent kinase 5 promoter) (dsDNA)
DNA 1: CGTCGGTGACTCAAAACAC
DNA 2: GTGTTTTGAGTCACCGACG
In the case of B4, the binding result in data set [4] was “binds”.
